Data from patent publication US20170224836A1 (Novartis, published 2017).
Like-named read-outs stand apart in the source and are kept apart here.

T1: human CDH6 on cells (human, UniProt P55285 54-790)
T1 sequence: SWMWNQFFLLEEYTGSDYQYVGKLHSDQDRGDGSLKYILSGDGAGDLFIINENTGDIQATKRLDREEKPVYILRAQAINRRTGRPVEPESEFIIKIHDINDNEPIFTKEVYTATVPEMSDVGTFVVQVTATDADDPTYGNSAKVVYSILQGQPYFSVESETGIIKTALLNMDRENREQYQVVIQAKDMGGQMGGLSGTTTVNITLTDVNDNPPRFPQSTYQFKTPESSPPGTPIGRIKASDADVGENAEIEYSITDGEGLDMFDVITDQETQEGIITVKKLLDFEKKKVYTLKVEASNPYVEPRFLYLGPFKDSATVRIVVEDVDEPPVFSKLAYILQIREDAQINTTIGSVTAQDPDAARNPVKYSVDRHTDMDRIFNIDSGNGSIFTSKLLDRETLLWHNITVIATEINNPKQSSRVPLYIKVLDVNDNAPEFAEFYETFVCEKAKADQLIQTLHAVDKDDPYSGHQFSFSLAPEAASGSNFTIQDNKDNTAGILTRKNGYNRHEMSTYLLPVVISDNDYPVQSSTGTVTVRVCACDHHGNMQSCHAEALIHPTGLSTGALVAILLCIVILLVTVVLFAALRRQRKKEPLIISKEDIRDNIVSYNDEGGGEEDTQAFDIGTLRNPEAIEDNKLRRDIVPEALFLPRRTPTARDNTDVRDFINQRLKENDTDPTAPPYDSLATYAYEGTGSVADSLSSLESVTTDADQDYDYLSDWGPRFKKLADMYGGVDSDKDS

T2: hCDH6aa54-615 APPavi (human, UniProt P55285 54-615)
T2 sequence: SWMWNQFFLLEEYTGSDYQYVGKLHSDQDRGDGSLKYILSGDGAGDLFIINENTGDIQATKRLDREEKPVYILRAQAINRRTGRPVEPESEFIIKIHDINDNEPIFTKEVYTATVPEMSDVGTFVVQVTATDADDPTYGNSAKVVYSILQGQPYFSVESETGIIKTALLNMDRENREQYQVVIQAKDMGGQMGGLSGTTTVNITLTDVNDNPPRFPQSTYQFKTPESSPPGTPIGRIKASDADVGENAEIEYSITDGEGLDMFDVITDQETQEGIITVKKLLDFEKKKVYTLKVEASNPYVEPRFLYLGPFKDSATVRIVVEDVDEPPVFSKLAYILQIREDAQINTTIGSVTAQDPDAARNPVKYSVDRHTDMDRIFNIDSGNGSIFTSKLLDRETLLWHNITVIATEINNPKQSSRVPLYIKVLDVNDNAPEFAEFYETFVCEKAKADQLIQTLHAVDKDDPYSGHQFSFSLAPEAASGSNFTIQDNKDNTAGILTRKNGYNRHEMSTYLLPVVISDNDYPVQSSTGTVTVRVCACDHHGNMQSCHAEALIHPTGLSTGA

B1: NOV0710-SPDB-DM4 (antibody, human IgG1, kappa, V domains shown)
VH: QVQLLESGGGLVQPGGSLRLSCAASGFTFSSYAMSWVRQAPGKGLEWVSVIRSSGSSTYYADSVKGRFTISRDNSKNTLYLQMNSLRAEDTAVYYCARGGGYFDYWGQGTLVTVSS
VL: DIQMTQSPSSLSASVGDRVTITCRASQSISLWLNWYQQKPGKAPKLLIYAASTLQSGVPSRFSGSGSGTDFTLTISSLQPEDFATYYCQQYYTSPYTFGQGTKVEIKR
modifications: SPDB-DM4 on primary amines, sites not stated
B2: NOV0712-SMCC-DM1 (antibody, human IgG1, kappa, V domains shown)
VH: QVQLLESGGGLVQPGGSLRLSCAASGFTFSSHGMHWVRQAPGKGLEWVSVISGSGSNTGYADSVKGRFTISRDNSKNTLYLQMNSLRAEDTAVYYCARQWGSYAFDSWGQGTLVTVSS
VL: DIQMTQSPSSLSASVGDRVTITCRASQSISSYLNWYQQKPGKAPKLLIYAVSTLQSGVPSRFSGSGSGTDFTLTISSLQPEDFATYYCQQSGTFPPTTFGQGTKVEIKR
modifications: SMCC-DM1 on primary amines, sites not stated
B3: NOV0712-SPDB-DM4 (antibody, human IgG1, kappa, V domains shown)
VH: QVQLLESGGGLVQPGGSLRLSCAASGFTFSSHGMHWVRQAPGKGLEWVSVISGSGSNTGYADSVKGRFTISRDNSKNTLYLQMNSLRAEDTAVYYCARQWGSYAFDSWGQGTLVTVSS
VL: DIQMTQSPSSLSASVGDRVTITCRASQSISSYLNWYQQKPGKAPKLLIYAVSTLQSGVPSRFSGSGSGTDFTLTISSLQPEDFATYYCQQSGTFPPTTFGQGTKVEIKR
modifications: SPDB-DM4 on primary amines, sites not stated
B4: NOV0718-SMCC-DM1 (antibody, human IgG1, lambda, V domains shown)
VH: QVQLVESGGGLVKPGGSLRLSCAASGFTFNSYALHWVRQAPGKGLEWVGRIKSKTNGGTTDYAAPVKGRFTISRDDSKNTLYLQMNSLKTEDTAVYYCARVDATYSYSGYYYPMDYWGQGTLVTVSS
VL: DIELTQPPSVSVSPGQTASITCSGDKIPTYTVHWYQQKPGQAPVLVIYDDNKRPSGIPERFSGSNSGNTATLTISGTQAEDEADYYCQSTASGTVVFGGGTKLTVLG
modifications: SMCC-DM1 on primary amines, sites not stated
B5: NOV0719-SMCC-DM1 (antibody, human IgG1, kappa, V domains shown)
VH: QVQLLESGGGLVQPGGSLRLSCAASGFTFSSHWVHWVRQAPGKGLEWVSVISYMGSSTYYADSVKGRFTISRDNSKNTLYLQMNSLRAEDTAVYYCARGSYDMAFDVWGQGTLVTVSS
VL: DIQMTQSPSSLSASVGDRVTITCRASQSIVSYLNWYQQKPGKAPKLLIYDASSLQSGVPSRFSGSGSGTDFTLTISSLQPEDFATYYCQQSGSHSITFGQGTKVEIKR
modifications: SMCC-DM1 on primary amines, sites not stated
B6: NOV0720-SMCC-DM1 (antibody, human IgG1, lambda, V domains shown)
VH: QVQLQQSGPGLVKPSQTLSLTCAISGDSVSSNSAGWNWIRQSPSRGLEWLGRIYYRSKWYNDYAVSVKSRITINPDTSKNQFSLQLNSVTPEDTAVYYCAREKYTVSFYDFFDYWGQGTLVTVSS
VL: DIELTQPPSVSVSPGQTASITCSGDNIGSMTAHWYQQKPGQAPVLVIYDKNERPSGIPERFSGSNSGNTATLTISGTQAEDEADYYCQSWDDSYNSVVFGGGTKLTVLG
modifications: SMCC-DM1 on primary amines, sites not stated
B7: NOV1126 (antibody, human IgG1, lambda, V domains shown)
VH: EVQLLESGGGLVQPGGSLRLSCAASGFTFSDHAIDWVRQAPGKGLEWVSVIAGSGSITYYADSVKGRFTISRDNSKNTLYLQMNSLRAEDTAVYYCARDTGVYREYMDVWGQGTLVTVSS
VL: SYELTQPLSVSVALGQTARITCSGDAIGTKFAHWYQQKPGQAPVLVIYYDHERPSGIPERFSGSNSGNTATLTISRAQAGDEADYYCYSRASSNLVFGGGTKLTVLG
B8: NOV1127 (antibody, human IgG1, kappa, V domains shown)
VH: QVQLQQSGPGLVKPSQTLSLTCAISGDSVSSQSAAWNWIRQSPSRGLEWLGRIYYRSKWYNDYAVSVKSRITINPDTSKNQFSLQLNSVTPEDTAVYYCARERSYRDYFDYWGQGTLVTVSS
VL: DIQMTQSPSSLSASVGDRVTITCRASQGIFTYLNWYQQKPGKAPKLLIYAASTLQSGVPSRFSGSGSGTDFTLTISSLQPEDFATYYCQQYYSTSLTFGQGTKVEIKR
B9: NOV0692 (antibody, human IgG1, lambda, V domains shown)
VH: QVQLVESGGGLVKPGGSLRLSCAASGFTFSRYWMDWVRQAPGKGLEWVGRIKSKANGGITDYAAPVKGRFTISRDDSKNTLYLQMNSLKTEDTAVYYCARGMTFLGIWGQGTLVTVSS
VL: DIELTQPPSVSVSPGQTASITCSGDSIGSKYAQWYQQKPGQAPVLVIYYNSERPSGIPERFSGSNSGNTATLTISGTQAEDEADYYCQSWDGQSTIRVFGGGTKLTVLG

Legend:
[1] = biological target: T1, human CDH6 on cells; experiment: cell-based or functional assay
[2] = biological target: T1, human CDH6 on cells; experiment: cell-based or functional assay; remark: listed apart in the source
[3] = biological target: T2, hCDH6aa54-615 APPavi; experiment: SPR binning
[4] = biological target: T2, hCDH6aa54-615 APPavi; experiment: SPR binning; remark: listed apart in the source
[5] = biological target: T2, hCDH6aa54-615 APPavi; experiment: SPR binning; remark: listed apart in the source
[6] = biological target: T2, hCDH6aa54-615 APPavi; experiment: SPR binning; remark: listed apart in the source
[7] = biological target: T2, hCDH6aa54-615 APPavi; experiment: SPR binning; remark: listed apart in the source
[8] = biological target: T2, hCDH6aa54-615 APPavi; experiment: SPR binning; remark: listed apart in the source
[9] = biological target: T2, hCDH6aa54-615 APPavi; experiment: SPR binning; remark: listed apart in the source

Binder	Amax (%), inhibition of proliferation, OVCAR3 cells [1] [%]	Amax (%), inhibition of proliferation, OVCAR8 (engineered CDH6+) cells [1] [%]	IP [nM], inhibition of proliferation, OVCAR3 cells [1] [nM]	IP [nM], inhibition of proliferation, OVCAR8 (engineered CDH6+) cells [1] [nM]	percent inhibition at 1.22 nM ADC, JHOS4 cells [2] [%]	percent inhibition at 1.22 nM ADC, KNS42 cells [2] [%]	percent inhibition at 1.22 nM ADC, NCIH661 cells [2] [%]	percent inhibition at 1.22 nM ADC, OVCAR3 cells [2] [%]	percent inhibition at 1.22 nM ADC, SNU8 cells [2] [%]	response of secondary antibody on primary antibody-CDH6 complex [3]	response of secondary antibody on primary antibody-CDH6 complex [4]	response of secondary antibody on primary antibody-CDH6 complex [5]	response of secondary antibody on primary antibody-CDH6 complex [6]	response of secondary antibody on primary antibody-CDH6 complex [7]	response of secondary antibody on primary antibody-CDH6 complex [8]	response of secondary antibody on primary antibody-CDH6 complex [9]
B1	88	85	0.01	0.018	–	–	–	–	–	–	–	–	–	–	–	–
B2	88	95	0.065	0.015	67.6	56.8	32.5	87.6	31.4	–	–	–	–	–	–	–
B3	88	84	0.008	0.012	–	–	–	–	–	–	–	–	–	–	–	–
B4	–	–	–	–	-5.03	3.5	2.51	-3.8	3.35	–	–	–	–	–	–	–
B5	–	–	–	–	27.2	41	-9.87	76	3.18	–	–	–	–	–	–	–
B6	–	–	–	–	43.5	57	1.94	80.7	3.56	–	–	–	–	–	–	–
B7	–	–	–	–	–	–	–	–	–	18.7	36.9	26.7	61.6	8.59	56.6	30.1
B8	–	–	–	–	–	–	–	–	–	25.4	30.9	22.4	51.5	16.5	36.7	17.8
B9	–	–	–	–	–	–	–	–	–	-2.84	17.9	14.1	35.5	7.83	–	23.2
